The text below walks through data of IntAct's records for PubMed 17483306.

First the molecules themselves.
B1: ATPase 2, plasma membrane-type (Arabidopsis thaliana (Mouse-ear cress)), P19456 (parent)
chain: MSSLEDIKNETVDLEKIPIEEVFQQLKCSREGLTTQEGEDRIQIFGPNKLEEKKESKLLKFLGFMWNPLSWVMEMAAIMAIALANGDGRPPDWQDFVGIICLLVINSTISFIEENNAGNAAAALMAGLAPKTKVLRDGKWSEQEAAILVPGDIVSIKLGDIIPADARLLEGDPLKVDQSALTGESLPVTKHPGQEVFSGSTCKQGEIEAVVIATGVHTFFGKAAHLVDSTNQVGHFQKVLTAIGNFCICSIAIGMVIEIIVMYPIQRRKYRDGIDNLLVLLIGGIPIAMPTVLSVTMAIGSHRLSQQGAITKRMTAIEEMAGMDVLCSDKTGTLTLNKLSVDKNLVEVFCKGVEKDQVLLFAAMASRVENQDAIDAAMVGMLADPKEARAGIREVHFLPFNPVDKRTALTYIDGSGNWHRVSKGAPEQILELAKASNDLSKKVLSIIDKYAERGLRSLAVARQVVPEKTKESPGAPWEFVGLLPLFDPPRHDSAETIRRALNLGVNVKMITGDQLAIGKETGRRLGMGTNMYPSSALLGTHKDANLASIPVEELIEKADGFAGVFPEHKYEIVKKLQERKHIVGMTGDGVNDAPALKKADIGIAVADATDAARGASDIVLTEPGLSVIISAVLTSRAIFQRMKNYTIYAVSITIRIVFGFMLIALIWEFDFSAFMVLIIAILNDGTIMTISKDRVKPSPTPDSWKLKEIFATGVVLGGYQAIMTVIFFWAAHKTDFFSDTFGVRSIRDNNHELMGAVYLQVSIISQALIFVTRSRSWSFVERPGALLMIAFLIAQLIATLIAVYANWEFAKIRGIGWGWAGVIWLYSIVTYFPLDVFKFAIRYILSGKAWLNLFENKTAFTMKKDYGKEEREAQWALAQRTLHGLQPKEAVNIFPEKGSYRELSEIAEQAKRRAEIARLRELHTLKGHVESVVKLKGLDIETPSHYTV
partner: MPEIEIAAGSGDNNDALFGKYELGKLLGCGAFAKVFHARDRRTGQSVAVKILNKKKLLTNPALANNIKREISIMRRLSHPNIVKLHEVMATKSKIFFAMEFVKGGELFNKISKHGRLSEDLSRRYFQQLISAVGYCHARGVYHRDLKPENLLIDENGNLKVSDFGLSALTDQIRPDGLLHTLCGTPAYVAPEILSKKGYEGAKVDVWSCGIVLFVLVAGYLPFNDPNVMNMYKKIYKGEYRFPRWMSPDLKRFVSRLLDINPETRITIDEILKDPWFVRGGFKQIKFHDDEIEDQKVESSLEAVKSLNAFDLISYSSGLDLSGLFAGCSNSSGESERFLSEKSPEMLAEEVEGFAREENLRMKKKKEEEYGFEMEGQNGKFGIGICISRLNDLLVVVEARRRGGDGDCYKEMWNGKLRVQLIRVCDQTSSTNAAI
B2: ATPase 2, plasma membrane-type (Arabidopsis thaliana (Mouse-ear cress)), P19456 (parent)
chain: B1 chain
partner: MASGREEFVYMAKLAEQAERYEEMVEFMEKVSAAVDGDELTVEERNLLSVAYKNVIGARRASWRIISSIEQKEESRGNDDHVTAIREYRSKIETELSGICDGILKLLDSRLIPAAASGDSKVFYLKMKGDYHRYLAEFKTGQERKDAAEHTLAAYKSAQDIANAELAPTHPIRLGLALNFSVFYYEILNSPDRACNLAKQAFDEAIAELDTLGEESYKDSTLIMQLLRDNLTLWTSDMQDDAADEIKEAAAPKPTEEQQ

The first assay covers variants of B1. As to conditions: with cipkb_arath CIPK11, O22932.
For S931A, the “effect of a mutation on the interaction” value is “disrupting interaction”.

Variants of B2 are the subject of a further assay. As to conditions: with 14332_arath GRF2, Q01525.
On to S931A, for which the “effect of a mutation on the interaction” value is listed as “increasing interaction”.
Same read-out and setting: to S931D belongs “disrupting interaction”; to R913A;S931D, “decreasing interaction”.
